Biological target: Brg1 helicase domain D1D2 (Mus musculus, UniProt Q3TKT4 SEQ:1-431)
Test: EMSA; 10 mM HEPES-KOH pH 7.3, 10 mM NaCl, 1 mM MgCl2, 1 mM DTT, tRNA carrier, room temp
Details: tags: MBP fusion; label: 5'-biotin
Description: Biotin-labelled RNA control probe: [0158] Biotin—5′[…]-3′ (SEQ ID NO 25); and Biotin-labelled RNA probe with m⁶A: [0159] Biotin—5′[…](m⁶A)[…]-3′ (SEQ ID NO 26); were synthesized by Gene Link (Orlando, Fla.). EMSA was performed by using the LightShift™ Chemiluminescent RNA EMSA Kit (Cat. 20158, Thermo Scientific). The labelled probe was incubated with appropriate amounts of recombinant proteins in 10 μl in the 1× binding buffer (10 mM HEPES-KOH, pH 7.3, 10 mM NaCl, 1 mM MgCl2, 1 mM DTT) with 5 μg tRNA carrier at room temperature for 30 min. The reactions were then loaded onto 1% 0.5× TBE agarose gel and transferred to Bright Star Plus positive charged membrane. The biotin-labelled probes were detected and quantified subsequently using Odyssey Infrared Imaging System. The shifted signals were quantified and plotted against amount of the MBP-D1D2 protein ((SEQ ID NO 27) coupled to (SEQ ID NO 2)) with GraphPad Prism (GraphPad). The software facilitates the fitting of nonlinear regression model and calculation of Kd values based on the fitting curve. The errors and r² values were also generated from the fitting curve.

Chain of Brg1 helicase domain D1D2 (Q3TKT4 774-1204): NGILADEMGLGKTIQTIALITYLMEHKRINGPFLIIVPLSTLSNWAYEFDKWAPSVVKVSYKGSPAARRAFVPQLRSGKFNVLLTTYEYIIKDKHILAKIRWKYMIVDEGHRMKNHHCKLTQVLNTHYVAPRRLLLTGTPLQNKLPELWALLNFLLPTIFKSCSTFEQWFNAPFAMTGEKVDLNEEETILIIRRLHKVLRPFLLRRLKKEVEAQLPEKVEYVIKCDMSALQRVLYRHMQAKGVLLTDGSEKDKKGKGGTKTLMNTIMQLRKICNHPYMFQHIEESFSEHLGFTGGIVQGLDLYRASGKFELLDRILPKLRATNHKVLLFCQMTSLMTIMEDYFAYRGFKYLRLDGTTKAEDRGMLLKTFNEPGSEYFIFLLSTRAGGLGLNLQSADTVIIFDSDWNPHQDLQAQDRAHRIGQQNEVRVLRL

B1: Bmp10 RNA probe with m6A (49 nt) (ssRNA)
RNA: UCGUCAUGGCUGAACUGCGGUUGUACACGCUGGUGCAGAGAGAUCGCAU
modifications: m6A at A25 (M2 adenosine)
  Kd: 176 nM

From patent US20230348858, “COMPOSITIONS AND METHODS FOR PROMOTING PROLIFERATION IN CARDIOMYOCYTES” (THE TRUSTEES OF INDIANA UNIVERSITY, published 2023)
